From the nanobody polyreactivity screen of Harvey et al. (2022)

Assay: yeast display, Sf9 membrane polyspecificity reagent, FACS + sequencing; frameworks hold sequencing errors
How it was run: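 After 36–48 hours of galactose induction, yeast (Saccharomyces cerevisiae BJ5465) displaying a synthetic nanobody library were stained at 4 °C for 1 hour with 10% biotinylated, detergent-solubilized Sf9 membrane reagent. Streptavidin microbeads enriched the stained cells before FACS sorting into low and high (top ~1%) gates on anti-HA and streptavidin fluorescence. Each clone's polyreactivity label reflects its gate of origin.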

Row | Sequence | polyreactivity (PSR sort gate)
1 | QVHLVESGGVLVQAGGSLRLSCAASGSIFAKYAMGWYRQAPGKERELVAAISRSSVRTRYADSVKGRFTISRDNAKNTVYLQMNSLKPADTAVYYCNAYYRSYAYSHLDYWGQGTQVTVSS | high polyreactivity
2 | QVQLVESGGGLVQAGGSIRLRCAASGITFYYYAMGWYRQAPAKERELVAAISRSGITYYADSVKGRFTISRDNAKNSVYLQMNSLKPEDTAVYYGAAGRRFDQSMYYGGQGTQVTVSS | high polyreactivity
3 | QVQVVESGGGLVQAGGSLRLSCAASGSTFTIYAMGWYRQAPGKERELVALITWSGGSTYYADSVKGRFTISRDNAKNTVYLQMNSLKPEDTAVYYCAADYYRPVPGGYYWGQGTQVTVSS | high polyreactivity
4 | QVQLVESGGGLVQAGGSLRLSCAATGFTFSLYGMGWYRQAPGKERELVAAIRSGGSTNYADSVKGRFTISRDNAKNTVYLQMNSLKPVDTAVYYCATDIHSVHNNRDKHDYDYWGQGTQVTVSS | low polyreactivity
5 | QDQLVESGGGLVQAGGSLRLSCAASGSTLAYNAKGWYRPAPGKERELVAGIRGSGGSTYYADSVKGRFTISRDNAKNTVYLLMNSLKPEDTAVYDCAAAGYYYYLYAAYYYWGQGTQVTVSS | low polyreactivity
6 | QVQLVESGGGLVQAVASLRLSCAASGRIFGPYAMGWDRQAPGKERELVASITRSGGRTYYADSVKGRFTISRDYAKNTVYLQMNSLKPDDTAVYYCAAGGFSKSDYYWGQGTQVTVSS | high polyreactivity
7 | QDQHVESAGGLVQAGGSRRLSCAASESMFSTYPMGCYSQAPGTESELVATIRRGGSTYYADSVKGRFTISRDNAKNTVYLQMNSLKPEDSAVYYCAATVSSYPYYRYYSWGQGTQVTVSS | high polyreactivity
8 | QVQLVESGGGLVQAGGSLRLSCAASGRTFISNVIGWYRKAPGKERDLVAAITWRGGRTHYADSVKGRFTISRDNAKITVYLQMNSLKPEDTAVYYCAARYIPIQYPSYRTWGGYSWGQGTQVTVSS | high polyreactivity
9 | QVQLVESGGGLVQPGGSLRLSCAASGFTFSKYAMGWYRQAPGKERELVAAISRSAGSTYYADSVKGRFTISRDNAKNTVYLQMNSLKPEDTAVYYCARDNPRRPSGYNYWGQGTQVTVSS | high polyreactivity
10 | QVQLVESGGGLVQAGGSLRLSCAASGSTFPPNAMGWYRQAPGKEGELVADSSDSSTYYADSVKGRFTISRDNAKNTVYLQMNSLKPEDTAVYYCAAADAGLSSKSYGQQYDYWGQGTQVTVSS | low polyreactivity
11 | QVQLVESGGGLVQAGGSLRLSCAASGFTFPYYAMGWYRQAPGKERELVAAITGRGGSTYYADSVKGRFTISRDNAKNTVYLQMNSLKPVDTAVFYCNAVRFAIHLADPYDYWGQGTQVTVSS | high polyreactivity
12 | QVQLVESGGGLVQAGGSLRLSCAASGSTFRWYTMGWYRQAPGKERELVAAINQSGSRTYYADSVKGRFTISRDNAKNTVYLQMNSLKPEDTAGYYCNAKSYKSPHTYYYWGQGTQVTVSS | high polyreactivity
13 | QVQLVESGGGLVQAGGSLRLSCAASGFIFPYYARGWYRQAPGKERELVAGITGADSTYYADSVKGRFTISRDNAKNTVYLQMNSLKPEDTAVYYCARKRYSLSRTYNYGYWGQGTQVTVSS | high polyreactivity
14 | QVQLVESGGGLVQAGGSLRLSGAASGRIFVRNSMGWYRQAPGKERELVAAISSNGGSTRYADSVKGRFTISRDNAKNTVYLQMNSQKPEDTAVYYCNAYYSHSPRYLKYDYWGQGTQVTVSS | high polyreactivity
15 | QVQLVESGGGLVQAGGSLRLSCAASGRILRQYAMGWYRQEPGKERELVAAISRSGASTFYADSVKGRFTISRDNAKNTVYLPMNSLKPEYTAVYYCASKRYLKYGYWGQGTQVTVSS | high polyreactivity
16 | QVQLVESGGGLVQAGGSLRLSCAASGRTFLVNAMGWYRQAPGKERELVAAISSVGSTNYADSVKGRFTISRDNAKNTVYLQMNSLKPEVTSVYYCAKDAEYDCGQGTQVTVSS | low polyreactivity
17 | QVQLVESGGGLVQAGGSLRLSCAASGRIISSYAMGWYRQAPGKERELVAAITSSGGSTYYADSVKGRFTISRDNAKNTVYLQMNSLKPEDTAVYYCAARVFARYYTAYGVETRREEDYWGQGTQLTVSS | low polyreactivity
18 | QVQLVESGGGLVQAGGSLRLSCAASGRTFAGNAMGWYRQAPGKERELVASISSSAGRTYYADSVKGRFTISRDNAKNTVYLQMNSLKPEDTAVDYCAARGGYVSTWTRFSKYNYWGQGTQVTVSS | high polyreactivity
19 | QVQLVESGGGLVQAGGSLRLSCAASGSTFTVYAMGWYRQAPGKERELVAVITGSGGSTYYADSVKGRFTISRDNAKNTVYLQMNSLKPEDTAVYYCAKEPGENWTVSWRDFDYWGQGTQVTVSS | low polyreactivity
20 | QVQLVESGGGLVQAGGSLRLSCAASGLIFDYYAMGWYRQAPGKERELVAAITSSSGITYYADSVKGRFTISRDNAKNTVYLQMNSLKPEDTAVYYCAAYTTYKLYEYDYWGQGTQVTVSS | low polyreactivity
21 | QDQLVESGGGLVQAGGSLRLSCAASGRISPRYAMGWYRQAPGKERELVAAIDTSDGTTYFADSVKGRFTISRDNAKNTVYLQMNSLKPEDTAVYYCAAEGQLFDLYDYWGQGTQGTVSS | low polyreactivity
22 | QVQLVESGGGLVQAGGSLRLSCAASGSTFGYYAMGWYRQAPGKERELVATINRSGGSTYYADSVKGRFSISRDNAKNTVYLQMNSLKPEDTAVYYCNKLAYAGFGYIGSGYWGQGTQVTVSS | low polyreactivity

Row | Sequence | polyreactivity (PSR sort gate)
23 | QVQLVESGGGLVQAGGSLRLSCAASGINFPRYMGWYRQAPGKERELVAAIRWSSDDTNYADSVKGRFTISRDNAKNTVYLQMNSLKPEDTAVYYCAADSYYDRTIQFEFSASTYDYWGQGTQVTVSS | low polyreactivity
24 | QVQLVESGGGLVQAGGSLRLSCAASGRTFVIYAMGWYRQAPGKEREFVPAISKGGGSTYYADSVKGRFTISRDNAKNTVYLQMNSLKPEDTAVYYCAAGYGTYYQSSRFDYWGQGTQVTVSS | high polyreactivity
25 | QVQHEESGGGIVQAGGSLRLSSAASGRTFKYYDMGWFRQALGKERELVATISSSDSTNYADSVKGRFTISRDNAKNTVYLQLNSLKPEDTAVYYCNADFKLIYVFDYWGQGSQVTVSS | high polyreactivity
26 | QDQLVESGGGLVQAGGSLRLSCAASGRTFYANAMGWNRQAPGKERELVAAISSSDDITYYADSVKGRFTNSRDNAKNTVYLQINSMKPEDTAVYYCAAEEYIVTYSGFWQEYEYWGQGTQVTVSS | high polyreactivity
27 | QVQLVESGGGLVQAGGSLRLSFAASGIILGSYAMGWYRQAPGKERELVAGITSGGGTYYADSVKGRFTISRDNAKNTVYLQMNSLKPEDTAVYYCAKLYLHYYRYGYWGQGTQVTVSS | low polyreactivity
28 | QVQLVESGGGLVQEGGSLRLSCAASGRIFENNAMGWYRQAPGKERELVAAITSGGSTYYADSVKGRFTISRDNAKNTVYLQMNSLKPEDTAVYYCNVTFRVDPWTRTGYDYWGQGTQVTVST | high polyreactivity
29 | QVQLVESGGGLVQAGGSLRLSCAASGYIFDRNAMGWYRQAPGKERELVAAITKRGGITYYADSVKGRFTISRDNAKNTVYLQMNSLKPEDTAVFYWNALARSSRYDYWGQGTQVTVSS | high polyreactivity
30 | QVQLVESGGGLVQAGCSLRLICAASGIIFVGYAMGWYRQAPGKDRELVAGINSGGSTNYADSVKGRFTISRDNAKNTVYLQMNSLKPEDTAVYYCAAYPYYYYGYDYWGQGTQVTVSS | low polyreactivity
31 | PVQLVESGGGLVQAGGSLRLSCAASGFTLYDYAMGWYRPAPGKERELVAAISRSGGRTYYADSVKGRFTISRDNAKNTVYLQMNSLKPEDTAVYYCAADILRGQWYEYDYWGQGTQVTVSS | high polyreactivity
32 | QVQLVESVGGLVQAGGSLRLSCAASGFIFFFYAMGWYRQAPGKERELVAAISDGVSTYYADSVKGRFTISSDNAKNTVYLQMNSLKPEDTAVYYCAVSRGDEPEFDYWGQGTQVTVSS | low polyreactivity
33 | QVQLVESGGGLVQAGGSLRLSCAASGRTLDVYAMGWSRQAPGKERELVASITSSGARTYYADSVKGRFTISRDNAKNTVYLQMNSLKPEDTAVYYCAARVYRYSASRAYDYWGQGSQVTVSS | high polyreactivity
34 | QVQLVESGGGLVQAGGSLRLSCAASGLIFHGYAMGWYRQAPGKERELVAVITKNGGRTYYADSVKGRFTISRDTAKNTVYLQMNSLKPEDTAVYYCATGKNYWRGYEYWGQGTQVTVSS | high polyreactivity
35 | QVQLVESGGGLVQAGGSLRLSCAASGRTFYSNAMGWYRQPPGKERELVAAIRRSGGSTYYADSVKGRFTISRDNAKNTVYLQMNSLKPEDTAVYYCNAPHHRYDWGQGTQVTVSS | high polyreactivity
36 | QVQLVESGGGLVQAGGSLRLSCAASGFIFRGYAMGWYRQAPGKERELVAAISRRGGSTYYADSVKGRFTISRDNAKNTVYLHMNSLKPEDTAVYYCNAETTPQGNVRDGYWGQGTQVTVSS | high polyreactivity
37 | QVQLVESGGGLVQAGGSLRLSCAASGSTSGSYAMGWYRQAPGKERELVATISWSGGRTYYADSVKGRFTISRDNAKNTVYLQMNSLKPEDTAVYYCAARRYAFRYYGYDYWGQGTQVTVSS | high polyreactivity
38 | QVQLVESGGGLVQAGGSLRLSCAASGLTSHSYAMGWYRQAPGKERELVAAINGDGGSTYYADSVKGRFTISRDNAKNTVYLQMNSLKPEDTAVYYCAAQGNRPRGEYDYWGQGTQVTVSS | high polyreactivity
39 | QVQLVESGGGLVQAGGSLRLSCAASGRIFYFNAMAWYRQAPGKERELVAAISGSGGDTYYADSVKGRFTISRDNAKNTVYLQMNRLKPEETAVYYCAAEVYTWGQGTQVSVSS | low polyreactivity
40 | QVQLVESGGGLVQAGGSLSLSCAASGYTLYANAMGWYRQAPGKERELVAAIRSGGSTNYADSVKGRFTISRDNAKNTVYLQMNSMKPEDTAVYYCAKDPYQDFLYLRYYGYYYWGQGTQVTVSS | low polyreactivity
41 | QVQLVESGGGLVQAGGSLRLSCAASGIIYKSYAMGWYRQAPGKERELVAVIRWSGGSTYYSDSVKGRFTISRDNAKNTVYLQMNSLKPEDTAVYYCAATPRKSYSIRRYDYWGQGTQVTVSS | high polyreactivity
42 | QVQLVESGGGLVQAGGSLRLSCAASGIIFEYYAMGWYRQAPGKERELVAAISKRGGSTYYADSVKGRFTISRDNAKNTVYLQMNSLKPEDTAVYYCNARRRYYSGPVYLHYRVNYWGQGTQVTVSS | high polyreactivity
43 | QVQLVESGGGLVQAGGSLRLSCAASGRIGRYAMGWYRQAPGKERELVAAITWSGGSTYYADSVKGRFTISRDNAKNTVYLQMNSLKPEDTAVYYCATGRYRDQPRTGYDYWGQGTQVTVSS | high polyreactivity
